Results: the supplement of paper PMC10065799, “High-throughput profiling of sequence recognition by tyrosine kinases and SH2 domains using bacterial peptide display” (eLife, 2023)

Experiments:
[1] = target: Grb2 SH2 (UniProt P62993); assay: SH2 binding enrichment of the phosphorylated peptide, bacterial display (enrichment ratio); higher = better substrate or ligand; peptides without Tyr show the background
[2] = target: c-Src SH2; assay: as above
[3] = target: SHP2-C SH2; assay: as above
[4] = target: MERTK (UniProt Q12866); assay: phosphorylation enrichment, bacterial display (enrichment ratio); higher = better substrate or ligand; peptides without Tyr show the background
[5] = target: Jak2 (UniProt O60674); assay: as above
[6] = target: FGFR3 (UniProt P22607); assay: as above
[7] = test system: AncSZ; assay: as above
[8] = target: Hck (UniProt P08631); assay: as above
[9] = target: Fes (UniProt P07332); assay: as above
[10] = target: EPHB2 (UniProt P29323); assay: as above
[11] = target: EPHB1 (UniProt P54762); assay: as above
[12] = test system: Fer (mouse); assay: as above
[13] = test system: c-Src; assay: as above
[14] = target: Fyn (UniProt P06241); assay: as above
[15] = target: FGFR1 (UniProt P11362); assay: as above
[16] = test system: c-Abl (mouse); assay: as above
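Wherever SH2 binding enrichment of the phosphorylated peptide, bacterial display is given: peptide library displayed on the E. coli surface as eCPX fusions, selected cells deep-sequenced, score is each peptide's frequency after selection divided by its frequency in the input.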
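Wherever phosphorylation enrichment, bacterial display is given: 11-residue human phosphosite peptides and single-mutation variants displayed on the E. coli surface, counted by deep sequencing, each peptide's frequency after selection divided by its frequency in the unselected input library; frequency after pTyr selection over input frequency; kinase dosed for 20-30% of maximal phosphorylation in three min.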

Chain of EPHB1 (P54762 whole entry, looked up): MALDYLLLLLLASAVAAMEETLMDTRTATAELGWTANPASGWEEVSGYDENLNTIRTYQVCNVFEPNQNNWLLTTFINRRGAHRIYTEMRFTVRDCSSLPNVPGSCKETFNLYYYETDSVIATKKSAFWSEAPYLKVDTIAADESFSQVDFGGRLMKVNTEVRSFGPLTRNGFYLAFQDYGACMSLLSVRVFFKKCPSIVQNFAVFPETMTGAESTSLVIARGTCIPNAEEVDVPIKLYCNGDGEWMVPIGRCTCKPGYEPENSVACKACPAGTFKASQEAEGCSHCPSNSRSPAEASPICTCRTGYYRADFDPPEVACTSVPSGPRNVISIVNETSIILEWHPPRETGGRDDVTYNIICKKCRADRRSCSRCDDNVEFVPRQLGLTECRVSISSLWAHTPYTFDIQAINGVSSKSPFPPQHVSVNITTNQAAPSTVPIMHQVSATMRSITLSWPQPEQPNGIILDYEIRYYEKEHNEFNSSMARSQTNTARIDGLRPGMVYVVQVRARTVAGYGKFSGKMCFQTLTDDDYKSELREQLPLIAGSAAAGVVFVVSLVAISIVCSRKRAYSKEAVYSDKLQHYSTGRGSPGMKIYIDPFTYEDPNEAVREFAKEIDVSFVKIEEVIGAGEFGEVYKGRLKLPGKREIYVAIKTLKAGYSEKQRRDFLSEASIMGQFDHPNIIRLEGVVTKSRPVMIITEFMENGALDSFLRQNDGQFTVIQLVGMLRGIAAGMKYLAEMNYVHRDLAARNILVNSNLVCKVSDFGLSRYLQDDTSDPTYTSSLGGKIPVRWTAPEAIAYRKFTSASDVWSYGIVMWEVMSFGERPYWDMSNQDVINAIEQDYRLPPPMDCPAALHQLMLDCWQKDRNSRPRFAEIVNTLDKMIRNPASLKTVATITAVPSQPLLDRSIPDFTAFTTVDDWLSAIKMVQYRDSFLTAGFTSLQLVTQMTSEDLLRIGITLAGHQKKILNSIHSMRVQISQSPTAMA
Chain of Grb2 SH2 (P62993 whole entry, looked up): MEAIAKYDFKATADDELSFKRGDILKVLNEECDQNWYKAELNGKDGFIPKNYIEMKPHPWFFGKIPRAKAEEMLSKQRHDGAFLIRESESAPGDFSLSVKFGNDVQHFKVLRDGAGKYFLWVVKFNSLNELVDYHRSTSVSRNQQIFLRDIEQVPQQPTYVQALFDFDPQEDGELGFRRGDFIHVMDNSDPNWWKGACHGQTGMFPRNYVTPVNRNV
Chain of Fyn (P06241 whole entry, looked up): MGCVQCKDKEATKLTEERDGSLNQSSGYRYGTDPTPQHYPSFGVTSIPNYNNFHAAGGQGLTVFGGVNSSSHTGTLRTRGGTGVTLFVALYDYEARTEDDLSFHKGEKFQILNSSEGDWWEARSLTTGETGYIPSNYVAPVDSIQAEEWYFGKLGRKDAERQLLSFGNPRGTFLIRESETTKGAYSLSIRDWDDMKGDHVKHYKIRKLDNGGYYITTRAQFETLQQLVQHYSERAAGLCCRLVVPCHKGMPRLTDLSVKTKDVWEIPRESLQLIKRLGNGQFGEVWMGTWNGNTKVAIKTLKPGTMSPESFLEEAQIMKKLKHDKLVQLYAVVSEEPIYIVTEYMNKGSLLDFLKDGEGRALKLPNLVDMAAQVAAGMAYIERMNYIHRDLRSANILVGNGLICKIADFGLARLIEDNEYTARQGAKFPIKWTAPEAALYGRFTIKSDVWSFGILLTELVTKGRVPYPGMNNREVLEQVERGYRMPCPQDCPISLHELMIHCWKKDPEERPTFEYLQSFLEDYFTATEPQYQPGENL
Chain of EPHB2 (P29323 whole entry, looked up): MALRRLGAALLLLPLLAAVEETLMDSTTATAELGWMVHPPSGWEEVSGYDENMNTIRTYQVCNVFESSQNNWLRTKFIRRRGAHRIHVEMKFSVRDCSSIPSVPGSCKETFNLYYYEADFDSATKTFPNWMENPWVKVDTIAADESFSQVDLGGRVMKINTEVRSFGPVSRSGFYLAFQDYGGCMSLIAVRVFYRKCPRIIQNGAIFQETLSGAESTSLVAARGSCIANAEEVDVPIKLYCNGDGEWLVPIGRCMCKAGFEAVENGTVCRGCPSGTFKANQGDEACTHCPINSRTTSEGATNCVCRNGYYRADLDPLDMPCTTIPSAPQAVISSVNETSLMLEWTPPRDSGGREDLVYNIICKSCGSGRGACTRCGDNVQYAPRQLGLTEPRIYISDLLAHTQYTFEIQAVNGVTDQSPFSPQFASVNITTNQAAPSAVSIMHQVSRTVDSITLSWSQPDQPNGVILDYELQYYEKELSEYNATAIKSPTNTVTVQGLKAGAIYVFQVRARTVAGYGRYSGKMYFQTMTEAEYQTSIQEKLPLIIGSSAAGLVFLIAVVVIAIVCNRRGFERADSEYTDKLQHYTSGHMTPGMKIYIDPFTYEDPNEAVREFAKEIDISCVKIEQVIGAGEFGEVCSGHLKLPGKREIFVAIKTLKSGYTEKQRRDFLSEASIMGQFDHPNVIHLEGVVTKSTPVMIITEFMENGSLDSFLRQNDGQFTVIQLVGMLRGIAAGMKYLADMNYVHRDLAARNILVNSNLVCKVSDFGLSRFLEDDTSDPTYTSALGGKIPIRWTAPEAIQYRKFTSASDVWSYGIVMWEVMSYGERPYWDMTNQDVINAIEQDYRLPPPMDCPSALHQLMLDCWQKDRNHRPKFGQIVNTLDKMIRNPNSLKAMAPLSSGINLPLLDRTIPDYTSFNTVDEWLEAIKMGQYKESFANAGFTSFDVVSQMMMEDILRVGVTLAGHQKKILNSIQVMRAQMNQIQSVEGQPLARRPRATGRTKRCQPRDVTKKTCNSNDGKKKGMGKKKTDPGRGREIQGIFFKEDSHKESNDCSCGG
Chain of Fes (P07332 whole entry, looked up): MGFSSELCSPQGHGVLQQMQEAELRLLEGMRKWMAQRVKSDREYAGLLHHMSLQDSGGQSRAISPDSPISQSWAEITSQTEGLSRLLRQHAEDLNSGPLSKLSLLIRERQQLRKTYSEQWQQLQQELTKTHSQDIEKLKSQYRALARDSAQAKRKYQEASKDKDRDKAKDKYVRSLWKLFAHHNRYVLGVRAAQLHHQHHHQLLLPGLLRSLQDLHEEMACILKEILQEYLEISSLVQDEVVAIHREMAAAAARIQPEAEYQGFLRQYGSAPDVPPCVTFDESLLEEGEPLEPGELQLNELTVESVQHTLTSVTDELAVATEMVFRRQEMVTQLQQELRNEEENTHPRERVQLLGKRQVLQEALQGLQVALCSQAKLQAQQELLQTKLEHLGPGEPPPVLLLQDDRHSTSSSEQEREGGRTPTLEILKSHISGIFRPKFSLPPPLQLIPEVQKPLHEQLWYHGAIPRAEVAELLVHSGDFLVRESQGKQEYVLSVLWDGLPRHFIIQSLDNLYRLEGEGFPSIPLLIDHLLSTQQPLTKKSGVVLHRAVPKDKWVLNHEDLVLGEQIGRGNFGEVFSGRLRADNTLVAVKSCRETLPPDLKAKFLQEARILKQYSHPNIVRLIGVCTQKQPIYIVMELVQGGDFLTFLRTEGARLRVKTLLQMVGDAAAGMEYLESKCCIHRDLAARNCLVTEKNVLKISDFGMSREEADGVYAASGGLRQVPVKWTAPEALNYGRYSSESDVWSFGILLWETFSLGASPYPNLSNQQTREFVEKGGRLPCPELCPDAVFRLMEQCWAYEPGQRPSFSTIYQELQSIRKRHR
Chain of Hck (P08631 whole entry, looked up): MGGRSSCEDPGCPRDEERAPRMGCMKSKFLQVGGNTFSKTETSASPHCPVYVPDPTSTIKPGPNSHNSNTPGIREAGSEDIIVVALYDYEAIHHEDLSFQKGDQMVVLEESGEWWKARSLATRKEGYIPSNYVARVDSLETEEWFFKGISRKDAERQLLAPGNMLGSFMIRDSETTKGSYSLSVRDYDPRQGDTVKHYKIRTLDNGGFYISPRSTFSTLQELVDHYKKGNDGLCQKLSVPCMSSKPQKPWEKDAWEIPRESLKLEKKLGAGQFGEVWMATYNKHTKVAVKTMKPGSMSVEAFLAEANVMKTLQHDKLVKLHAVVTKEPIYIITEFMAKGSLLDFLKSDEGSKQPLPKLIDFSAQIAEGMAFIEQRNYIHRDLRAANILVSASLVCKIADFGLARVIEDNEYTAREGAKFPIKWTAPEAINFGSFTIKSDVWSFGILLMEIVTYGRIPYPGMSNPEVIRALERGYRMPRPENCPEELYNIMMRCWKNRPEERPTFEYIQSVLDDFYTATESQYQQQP
Chain of FGFR1 (P11362 whole entry, looked up): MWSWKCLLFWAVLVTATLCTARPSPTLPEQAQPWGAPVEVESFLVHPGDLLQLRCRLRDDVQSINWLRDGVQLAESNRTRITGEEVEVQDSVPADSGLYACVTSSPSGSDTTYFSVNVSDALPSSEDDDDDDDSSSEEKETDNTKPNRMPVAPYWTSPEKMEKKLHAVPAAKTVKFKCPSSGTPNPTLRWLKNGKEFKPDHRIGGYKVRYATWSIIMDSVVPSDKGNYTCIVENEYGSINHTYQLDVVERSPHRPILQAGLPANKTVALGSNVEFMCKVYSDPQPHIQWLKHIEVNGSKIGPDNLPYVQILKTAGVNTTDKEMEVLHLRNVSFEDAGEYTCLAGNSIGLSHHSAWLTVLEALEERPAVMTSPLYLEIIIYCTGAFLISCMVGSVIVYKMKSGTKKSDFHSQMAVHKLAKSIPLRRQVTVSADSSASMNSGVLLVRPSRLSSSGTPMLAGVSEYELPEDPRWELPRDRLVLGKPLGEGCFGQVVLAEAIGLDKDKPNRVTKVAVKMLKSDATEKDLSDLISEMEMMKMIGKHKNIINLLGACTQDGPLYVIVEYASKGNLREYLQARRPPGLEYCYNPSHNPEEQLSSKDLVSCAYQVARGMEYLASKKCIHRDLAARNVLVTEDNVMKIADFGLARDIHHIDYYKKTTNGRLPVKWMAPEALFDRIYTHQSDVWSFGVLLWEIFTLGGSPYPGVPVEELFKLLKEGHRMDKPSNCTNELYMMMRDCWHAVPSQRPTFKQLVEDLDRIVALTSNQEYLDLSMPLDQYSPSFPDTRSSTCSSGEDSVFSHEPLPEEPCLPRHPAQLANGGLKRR

Sequence | SH2 binding enrichment [1] | SH2 binding enrichment [2] | SH2 binding enrichment [3] | phosphorylation enrichment [4] | phosphorylation enrichment [5] | phosphorylation enrichment [6] | phosphorylation enrichment [7] | phosphorylation enrichment [8] | phosphorylation enrichment [9] | phosphorylation enrichment [10] | phosphorylation enrichment [11] | phosphorylation enrichment [12] | phosphorylation enrichment [13] | phosphorylation enrichment [14] | phosphorylation enrichment [15] | phosphorylation enrichment [16]
PAVGIYNGNIN [CDCP1_Y707_D709G] | 0.696 | 0.44 | 0.708 | 0.574 | 1.15 | 0.884 | 0.67 | 1.55 | 1.15 | 0.652 | 0.605 | 0.588 | 1.64 | 1.49 | 0.396 | 1.08
PEEKVYLSRGD [CRACR2A_Y141_H136P] | 0.804 | 0.457 | 0.529 | 0.735 | 1.22 | 1.29 | 1.44 | 1.1 | 1.77 | 0.573 | 1.06 | 0.778 | 1.01 | 0.88 | 0.706 | 1.35
PEFINYHQHNS [BTK_Y361_L358F] | 0.659 | 0.608 | 0.659 | 0.507 | 0.933 | 0.947 | 0.709 | 0.485 | 0.607 | 0.515 | 0.299 | 0.335 | 1.03 | 0.552 | 0.821 | 0.491
PFSEPYADFGG [APBA1_Y187_YF] | 0.862 | 0.868 | 0.659 | 0.76 | 0.991 | 0.957 | 1 | 0.786 | 1.29 | 0.488 | 0.543 | 0.719 | 3.39 | 1.15 | 1 | 1.38
PFSSPYENSLI [EPOR_Y489_N487S_YF] | 14.1 | 6.34 | 1.03 | 0.891 | 0.941 | 1.3 | 1.4 | 1.21 | 1.42 | 1.15 | 1.24 | 3.51 | 0.674 | 1.34 | 0.604 | 0.705
PFVFFYSFLLK [PTEN_Y178_R173P_YF] | 1.04 | 0.496 | 0.913 | 0.931 | 2.1 | 1.25 | 1.99 | 0.983 | 2.12 | 0.686 | 1.07 | 0.983 | 0.577 | 0.679 | 0.751 | 1.52
PGPPGYCDSSH [COL12A1_Y3043_Q3048H] | 1.08 | 0.498 | 0.671 | 0.84 | 1.16 | 0.941 | 1.09 | 1.58 | 1.62 | 0.514 | 0.724 | 0.542 | 0.727 | 0.46 | 0.512 | 1.21
PGVNYYFRVSA | 0.849 | 0.611 | 1.64 | 0.448 | 1.26 | 1.01 | 1.11 | 0.469 | 1.08 | 0.706 | 0.715 | 0.466 | 0.331 | 0.466 | 0.787 | 0.79
PKEEPYKMQEK [SLC5A3_Y565_Q566K] | 0.766 | 0.541 | 0.624 | 0.467 | 0.892 | 0.587 | 0.885 | 0.415 | 1.21 | 0.403 | 0.544 | 0.612 | 0.607 | 0.386 | 0.565 | 0.969
PKGIRYGQGAG [CSRP3_Y73_G72R] | 0.984 | 0.484 | 0.867 | 0.9 | 0.521 | 0.453 | 0.532 | 0.587 | 0.504 | 0.375 | 0.502 | 0.349 | 0.585 | 0.411 | 0.339 | 0.927
PLCPDYQEPSR [DDR2_Y481_R478C] | 0.86 | 0.786 | 0.781 | 0.854 | 1.23 | 1.46 | 3.5 | 1.01 | 2 | 2.01 | 1.43 | 0.999 | 0.61 | 1.12 | 0.643 | 0.896
PLDGEYFSLQI [TP53_Y327_T329S] | 0.762 | 0.387 | 0.836 | 0.737 | 5.35 | 4.26 | 3.12 | 1.76 | 2.23 | 1.24 | 1.15 | 0.749 | 5.24 | 3.53 | 6.64 | 2.77
PLKFLYPNIDK [STAT1_Y668_YF] | 0.714 | 0.72 | 0.647 | 0.846 | 1.65 | 0.822 | 1.26 | 1.09 | 2.18 | 1.3 | 0.945 | 1.13 | 0.939 | 1.16 | 1.54 | 1.38
PLKYLYPNIDK [STAT1_Y668] | 0.785 | 0.825 | 0.735 | 0.786 | 1 | 0.614 | 0.88 | 0.782 | 0.896 | 0.69 | 0.638 | 0.614 | 0.461 | 0.564 | 0.41 | 0.775
PLQKTYNYNML [SLC4A1_Y553_V557M] | 0.78 | 1.37 | 0.623 | 0.52 | 0.649 | 0.678 | 0.878 | 0.578 | 1.01 | 1.03 | 0.76 | 0.395 | 0.52 | 0.39 | 0.589 | 0.816
PLQSEYSSITT [ITGB4_Y1760] | 0.696 | 0.952 | 0.57 | 1.77 | 0.814 | 1.58 | 1.89 | 1.92 | 2.13 | 2.18 | 3.14 | 1.83 | 1.77 | 1.58 | 1.08 | 1.28
PLSGEYFTLQI [TP53_Y327_D324S] | 0.793 | 0.432 | 0.679 | 0.763 | 6.87 | 9.65 | 3.93 | 1.89 | 1.62 | 1.2 | 1.82 | 0.722 | 3.48 | 4.49 | 13.7 | 2.51

Sequence | SH2 binding enrichment [1] | SH2 binding enrichment [2] | SH2 binding enrichment [3] | phosphorylation enrichment [4] | phosphorylation enrichment [5] | phosphorylation enrichment [6] | phosphorylation enrichment [7] | phosphorylation enrichment [8] | phosphorylation enrichment [9] | phosphorylation enrichment [10] | phosphorylation enrichment [11] | phosphorylation enrichment [12] | phosphorylation enrichment [13] | phosphorylation enrichment [14] | phosphorylation enrichment [15] | phosphorylation enrichment [16]
PLTRSYIREKV [CYP2C8_Y243_A238P] | 0.923 | 0.351 | 0.904 | 0.406 | 0.591 | 0.48 | 0.582 | 0.312 | 0.413 | 0.484 | 0.276 | 0.262 | 0.448 | 0.474 | 0.341 | 0.305
PMDGEYFTLQI [TP53_Y327_L323M] | 0.978 | 0.394 | 0.407 | 0.604 | 4.86 | 9.07 | 4.04 | 2.79 | 1.95 | 0.753 | 1.5 | 1.57 | 5.21 | 4.35 | 12 | 2.02
PMQLPYDSTWE [PDGFRB_Y589] | 0.673 | 1.17 | 1.47 | 0.573 | 1.24 | 0.646 | 0.975 | 0.554 | 1.69 | 0.399 | 0.533 | 0.575 | 1.1 | 0.561 | 0.438 | 1.12
PNQRRYVYYYS [PTEN_Y174_S170N] | 1.17 | 2.17 | 3.49 | 3.81 | 1.37 | 1.61 | 2.88 | 1.29 | 2.29 | 1.57 | 1.07 | 0.817 | 1.06 | 1.86 | 3 | 0.841
PPDGEYFTLQI [TP53_Y327_L323P] | 0.561 | 0.537 | 1.1 | 0.902 | 3.69 | 10.2 | 3.41 | 2.75 | 1.74 | 1.14 | 1.19 | 1.41 | 5.4 | 3.74 | 12.4 | 2.33
PQGVRYTYTID [DCX_Y103_I104T] | 0.779 | 1.55 | 3.15 | 0.338 | 1.05 | 0.784 | 1.05 | 0.601 | 1.36 | 0.495 | 0.702 | 0.499 | 0.634 | 0.587 | 0.57 | 0.605
PSAELYSNALP [PDGFRB_Y716] | 1.19 | 0.629 | 0.734 | 7.96 | 0.849 | 1.73 | 1.55 | 3.02 | 1.79 | 1.91 | 2.63 | 7.66 | 1.38 | 1.66 | 1.79 | 0.96
PTQLPYDHKWE [KIT_Y578] | 0.923 | 0.524 | 0.575 | 0.449 | 0.68 | 0.696 | 0.859 | 0.87 | 1.33 | 0.631 | 0.716 | 0.601 | 0.618 | 0.491 | 0.581 | 0.655
PVADRYDQSFE [MAPK14_Y323_P322R] | 0.926 | 0.945 | 0.838 | 0.448 | 1.1 | 0.796 | 0.867 | 0.441 | 1.5 | 0.695 | 0.475 | 0.518 | 0.717 | 0.589 | 0.653 | 0.844
PVLSLYASGRT [ACTA1_Y145_A140P] | 0.841 | 0.484 | 0.926 | 0.752 | 1.39 | 0.703 | 1.14 | 0.768 | 1.19 | 0.548 | 0.637 | 0.539 | 0.573 | 0.616 | 0.328 | 1.31
PVPKTYDMLNA [PKP2_Y108_K112N] | 0.962 | 1.57 | 0.659 | 1.14 | 1.04 | 0.737 | 0.866 | 1.07 | 1.11 | 0.622 | 0.512 | 0.542 | 0.83 | 0.666 | 0.597 | 1.05
PVQAAYQKVVA [HBB_Y131] | 0.795 | 0.706 | 0.516 | 0.716 | 0.37 | 0.591 | 0.41 | 0.505 | 0.438 | 0.536 | 0.694 | 0.557 | 0.471 | 0.418 | 0.645 | 0.716
PVQAAYQKVVD [HBB_Y131_A136D] | 1.12 | 0.719 | 0.697 | 0.38 | 0.577 | 0.515 | 0.831 | 0.931 | 1.01 | 1.06 | 0.493 | 0.384 | 0.458 | 0.621 | 0.655 | 0.432
QAQMDYRRLQP [MPL_Y591] | 0.819 | 0.319 | 0.63 | 0.321 | 0.795 | 0.788 | 0.666 | 0.367 | 0.942 | 0.439 | 0.373 | 0.48 | 0.428 | 0.543 | 0.306 | 0.622
QCTSAYLLQPE [NANS_Y188_P189L] | 0.793 | 0.473 | 0.922 | 0.785 | 1.19 | 1.21 | 1.41 | 0.596 | 1.49 | 0.727 | 0.555 | 0.611 | 1.4 | 1.01 | 0.733 | 1.24
QDGFSYLSRQM [LDLR_Y847_P848L_YF] | 0.983 | 0.406 | 0.557 | 0.413 | 0.844 | 0.995 | 0.985 | 0.748 | 1.07 | 0.797 | 0.584 | 0.636 | 0.461 | 0.772 | 0.872 | 0.563
